The results in this text go back to the DeepSol protein solubility set.

The series in a line: soluble on expression in E. coli; label from the status in PepcDB or PDB records.
As for “MAHHHHHHMCYDCATSSSLVTTILNGMHVFNLDERFYGANLAAGLSASNVESYPYHTIGEEPLMSSCFFNAGQLFAVGSSCGSVTVVSRRSRALTSCYATPDSFPIRSLSEIPAQPNCLLTCTEQGAAIVDVERSQLRMSLANPAAGRAVAAVPLQLHTFVVANYDGKVLLYDTRYRSSPSSVLSLPDQITCLAVSRDTPEVCVGTVGGRVFTLRCAEGPQREQAFGMSNRRSPVRCVAMDNGRIAAGDLAGRLALIDTADVPDPTVYWSAETLLRLPRPSGRARHA”, the “soluble on expression in E. coli” value was “not soluble”.
In the case of “KTMLKIKMAEDAEMIDEVVVTALGIKREEKALGYAVQKVGGSKLSTVKPVNIATSLTGKVAGLNVTNSTEFNTAPTLKLRGETPLLVVDGVPYSNISLNDIAADDIESVDVLKGATASALYGARGGSGAIMVTTKKGSQEG” it was “not soluble”; in that of “SHMQPFVYMAAPARIVFSAGSSADVAEEIRRLGLSRALVLSTPQQKGDAEALASRLGRLAAGVFSEAAMHTPVEVTKTAVEAYRAAGADCVVSLGGGSTTGLGKAIALRTDAAQIVIPTTYAGSEVTPILGQTENGVKTTMRGPEILPEVVIYDAELTLGLPVAISMTSGLNAMAHAAEALYARDRNPIASMMAVEGLRAMIEALPVVRQAPHDIGARETALYGAWLCGTVLGAVGMSLHHKLCHTLGGSLDLPHAETHAVLLPHTIAYVEEAAPNLLAPLAALVGGRAGAGLFDFAARLGAPSSLAALGVGADDLDPMAELATANPYWCPRPIEKTAIRDLLQRAFEGARPA”, “soluble”.
On to “MTVQEISRVIDGKRVIVKKPELLIPAGNLEKLKVAIHYGADAVYLGGQEFGLRSNAGNFTLEEMAEGVEFAKKYGAKIYVTTNIFAHNENMDGLEEYLKGIEKAGVTGIIVADPLIIETCKRVAPSVEVHLSTQQSLSNWKAAQYWKEEGLHRLVLAREASYEEMKEIKEKVDIEIEAFVHGAMCIAYSGRCTLSNHMTARDSNRGGCCQSCRWDYDLVQTVSQHKDAKELPLFQEEDAHFAMSPKDLNLILSIPKMIEIGIDSLKVEGRMKSIHYVATVATVYRKVIDAYCADPDNFEFKQEWLDELDKCANRDTAPAFFEGVPGHQEQMFGNHSKKTTYDFAGLVLDYNEETGIVTIEQRNHFKPGHEVEFFGPEIENFTQTVEKIWDEDGNELDAARHPLQIVKFKVDQPVYVNNMMRKSILQ”, for which the “soluble on expression in E. coli” value was “not soluble”.
With “MGSDKIHHHHHHMARINLEQLSTFLAVVRLGGVRRAATSLNLTQPAVTARIKNLEDNLDCELFDRTQSGMKLTKRGELLLGHAEKYEHLTQLVERDLVDPAGVEGRLRLGASETIAQCWLPDLVTRLHQLFPKLEIELVVDISANLRAGLMDRELDLAILLGPLSEFSVNNVELPDFELAWYAAADTSSEAIAASYLSRPVLTYPRNTRPYRELKEKLFEQAGPNFSLFPSSSLSACFRLVEADLGVAVLPRALGREYVLAGRIREFDPGWVPAPLRFTICYMGEPKSQLIETAAHMAREVAVDYHGDKNNL”, the “soluble on expression in E. coli” value was “not soluble”.
The result for “SLTRNNELIAVGKGSSLKRLPVFGMEPRILYNPLQGQKCIVQTTSWSQCSKTCGTGISTRVTNDNPECRLVKETRICEVRPCGQPVYSSLKKGKKCSKTKKSPEPVRFTYAGCLSVKKYRPKYCGSCVDGRCCTPQLTRTVKMRFRCEDGETFSKNVMMIQSCKCNYNCPHANEAAFPFYRLFNDIHKFRDEG” reads “not soluble”.
For “MGSSHHHHHHGGTGENLYFQGGSGASTANASVDGSCPAMRDAADEALWAKLDEVQKLLANRSDAKELFTKYTVLRSVVGEVKPVFADSVRTRVKVFCEEPSFAAPEECDDFEPVSLHVVAYLNYKLFMEEMKELMVQARLLKSIGMEGSGLRFQRREQNIVAPGNEPRTGSSSKPSAQVSMHKPSYRPATLIPVGTLRLRRVSKASGAGKLTEVVAKIERVCVVKSARCFDVGRTLMRAAEKIARDAFHVRWALTYAQLSSKDFYTKAGYTPKDGRACMDLHMPHVVMVKCLVDASM”, the “soluble on expression in E. coli” value was “not soluble”.
The result for “MGSDKIHHHHHHMQPSATDSTISAGTQPHIVYSERASAPGPLLVFIPGTGGKTPKTAETEQAFIGTALAHGYRVIILSYIDTPAIAQVCTKRVLANDPACAEQVRQKRAFGDDTTARIDDAPQDAIVHRLNALIRYLAAHNAGDHWEQYLAGERLNWRAIVLSGQSQGGGMAAYIAKRIAIRGVIDFSGGWDMRSDSDIASWYSAPSATPPERWYGTYHADERFASAIAASYRAMNIPVSHQFSLSEPVRHPEGKNPGHGEGASNPVYRGIWETMLTGLE” reads “not soluble”; that for “MSLCGISGLVQLEGVADTSAMRRSVETMVKALAHRGPDDSGVAGDGSAVFGMARLAIRGCHDGRQPMVDAETGVMMVCNGEIDNHAELRGWLAERGRAVEHATDVAVIPGLYLELGDGFVERLVGAFALAVWDPRRGRLLLARDRAGERPLFYACRDGRVSFASQAAALVAGSPEPYPADEAAVQAFLKAGYFEAPASPFAGMRKVLPGERIAIDVKGVERSRYWRLNFTRGPARKNPLDEFDAVFREAVRRQSEVEVDFGAFLSGGVDSSLVTAVMRSVHPDRKLKAFGLRFSESSYDEGVFAERVAESLGVDYTPIWVRPEDFPETLADLVRQSGEPLADPAWVPTALLARRASDEVRVALVGEGADELFGGYPTYFGARLAERYSRLPGGLRALIRKAVEAWPVSDKKVTVSFLLKRFVQGDELDFLARHVLWTSSIPPALLRRLGVTPPETPHVAGPQETMLDRLQQHDLETSLAEGLLTKADRASMRSALELRAPFLDKDVIEFAATLPERERVQGLETKVFLKRVALRYLPKDIVYRKKRGLSVPLSAWLRGPLHDWAEARISSPRLEELGINRAAALELLREHERRSADHARALWTLIVVSEWLEWKAGMEAHEGHHHHHH”, “soluble”; that for “MKVDLFDFHLPEELIAQTPLPDRAASRLMVLDKRTGAIRHETFRNIISYLNPGDCLVLNDTRVMPARLYGEKEETGGTVEVLLLKQLDGDRWETLVKPGKRVKPGTKLTFGGGKLEAVCLDTLEHGGRVLEFSYDGLFYEVLAELGEMPLPPYIKEKLDDPERYQTVYAREIGSAAAPTAGLHFTEELLDAIREKGVHIVFITLHVGLGTFRPVQVDEVEKHDMHAEFYQMSEETAETLNRVREQGGRIIAVGTTSTRTLETIAGKHNGRFVAESGWTDIFIYPGYEFKGIDGLVTNFHLPKSTLIMLVSALAGRENILHAYQVAVKERYRFFSFGDAMLII”, “not soluble”.
The result for “MSLNVVNSIFSKLSIAPMIDWTNSPFRTLMRLLAPNALLYTEMQTTGAVQNNPDRALYFNSVEHPLAIQLGGADKSALVKCAIIAEQKGFNEINLNLGCPSDKVQAGRFGACLMKEPEHVADCIRAIKQVVGIPVTAKTRIGIDNQDSYEFFRSFSLHLVEAGCDKLIIHARKAWLNGLNPKQNRTIPPVNYDYVYELKKEIPHIFITINGNILTVEEINNHLKHVDGVMLGRLACDNPYQIAEIHQALYPEFIKIKRSQLLMNYLDYWFDQSRANEGHHHHHH” reads “not soluble”; that for “MGSDKIHHHHHHMTDARDLTLPTGYIDLLGELKNRVRAARTRALRTVNTQLIELYWSIGQDVSAQQEHQGWGSGVIKRLADDLRAEFPEMKGFSARNVQYMTTFARAWNGGAIAQQPVAQLPWGHVTVLLDKLADQEKRDWYASEAVEYGWSRNVLMNMIMNKSLERTGSAPSNFAQHLVAQDSELAQQAAKDPYSFEFLGLSGEVAERDLEQALMDRITETLREMGPGFAFVGRQVHFDVGGDDFYIDLLFFHVEQLRYYVVELKTGKFQPEYAGKLNSYIALVDDRLRRETHADTVGILICGSKNDHTVRYSLGRATSPMAVASYTYDALPADVRDELPDADRLTAALDWTED”, “not soluble”.
In the case of “MKVAVLDFGKTNSKLFVFGQDGGILDERRTQPKWTHQDGFSVLDEAALHDWALGAVTEAVENHGVEGVMVSGHGCTFALVDDAALTHPILDYEQEPPAEIAARIDHRIPDFAETFSPRLPLGFNYGRHMLWVQEVDPDAFAAAKSILGYPQYWSWRLGGRPVSEVSYLGCHSHLWAPRSQDFSSLVDAEGWRGQMPAFARAGAVIGERRLGSSSRPIAIHNGVHDSNAALHAYRRQELGPLTVVSTGTWVVVLNPGCPLDVLDRDRDMLVNVDVDGGPVPTIRFMGGREFAAISAGWQGAIPPGAVQQAIDAGIMALPSFAPGGPMPDRPGRLVGRTPYAAERAAAALLYVALMVDLCLDLIQSQDTVIVDGGLNAGGLLAGLLAELRPGQAFLQGATLEGSATGAAALAFESVGRDFVAEAPEPVHAARFAGLAGYRDAWRDRVGGQGTAIKAAGGARLEHHHHHH” it was “not soluble”; in that of “SLNEGQEMEEQFALLLETLKNQQMNEFRELFLALHIYEQGQFYQSLDEKDRQHLYNYLSPKELADMFDVIEEDNENMKDYLAEMRPSYAADMLAEMYTDNAVDLLNMLDKSQKAKYLSLLSSEEAGEIKELLHYEDETAGAIMTTEFVSIVANQTVRSAMYVLKNQADMAETIYYVYVVDQENHLVGVISLRDLIVNDDDTLIADILNERVISVHVGDDQEDVAQTIRDYDFLAVPVTDYDDHLLGIVTVDDIIDVIDDEAASDYSGLAGVDVEEVSENPLKAASK”, “soluble”.
Regarding “SVSTTFRRIVSPCWRPFGIGEDSSPGSDDTNGRLDGLLWYKDSGNHITGEFSMAVVQANNLLEDHSQLESGPISLHESGPEATFVGVYDGHGGPEAARFVNDRLFYNIKRYTSEQRGMSPDVITRGFVATEEEFLGLVQEQWKTKPQIASVGACCLVGIVCNGLLYVANAGDSRVVLGKVANPFKELKAVQLSTEHNASIESVREELRLLHPDDPNIVVLKHKVWRVKGIIQVSRSIGDAYLKRAEFNQEPLLPKFRVPERFEKPIMRAEPTITVHKIHPEDQFLIFASDGLWEHLSNQEAVDIVNSCPRNGVARKLVKAALQEAAKKREMRYSDLEKIERGIRRHFHDDITVIVVFLHATNFATRTPISVKGGGLLSAHNPVL”, the “soluble on expression in E. coli” value is “soluble”.
The result for “MGSDKIHHHHHHMRQPDHDDERAQCFAGFAPESIAHYLEHVWLGTPNPVEEPALADDRTASLAVIPVSELAGRRTELLDAMVTLYGGERETHARALLSQWTKYYFGFTATAGFVAAALLRRPLAMSPDNTHIVLRDGLPIAAYFARDALQPVECDPARRYAPLVEHLNAVIEMLCTMTRIAPRVLWSNAGNLLDYLFEQCAPQFDLSEDIAWLFGPLAANGEANPLRLPVRQAKPRAASLPNPFSARRVCCVRYEIPGETQLCGRCPLLLTMSDAEIALQAASQ” reads “not soluble”; that for “MGHHHHHHSHMADTLAILNEFLLERSKREAEEENQIANKTGKDAQFEEDWQLSQFWYSTETKHALRDVVRKLLAERTKDSGDFSIALLSCPSLYKDIREIHDTVHIFEFDKRFEAYGTDFVHYDLNCVGSNPDYLKEHHQQYDLIVADPPF”, “soluble”.
As for “MKLNIRAQTAQNQHNNSPIVLVHGLFGSLDNLGVLARDLVNDHNIIQVDVRNHGLSPREPVMNYPAMAQDLVDTLDALQIDKATFIGHSMGGKAVMALTALAPDRIDKLVAIDIAPVDYHVRRHDEIFAAINAVSESDAQTRQQAAAIMRQHLNEEGVIQFLLKSFVDGEWRFNVPVLWDQYPHIVGWEKIPAWDHPALFIPGGNSPYVSEQYRDDLLAQFPQARAHVIAGAGHWVHAEKPDAVLRAIRRYLNDH”, the “soluble on expression in E. coli” value is on record as “soluble”.
In the case of “MPYLLYHHFDPTFDHQNLKPGLAVGKGKVDHYNLGYVQNVVKGQVLAEFIPIDDTDDPVIDRNHIFEEPLLPVGPNCKVDPDSPLRVVADANGYVFYNDGLITVKRMLNVRRDVDFHTGNIFFVSDIAVHGDVRAGFEVQGNNILVKGIIEGATVRARGSLAVEGGARGSGGSGLLDAGDTLRVPFAESMELRAHGNILIEKFCLHSLVYAATNLVVKNRLQGGTVHCNGLVYVETHLGNPKGTPTATRINMGYDPFTMRKLDRLEQHIRELQDSLTHIAGIAGNLGSDSAPGKRLDNARKKLNRLIRQREALWAALTEDEARAALCRVVVPGTVYPGVEISIGKAFFEVEHEMNNVSFSLADGSIVVTSPAIIKKKALEHHHHHH” it was “not soluble”.
